Experimental data: patent US5198419A, “Formulated medicines for enhancing the efficacy of beta-lactam antibiotics in prophylaxis and treatment against infectious disease due to pathogenic bacteria” (Immuno Japan Inc., priority 1989, dated 1993)

How the values were obtained:
[1] = test system: Kleb. pneumoniae IFO 3512; test: MIC of apolactoferrin on agar-plate medium; format: cell-based, Klebsiella pneumoniae
Description: (§1) The minimum inhibitory concentration of apolactoferrin against
(§2) bacteria on the agar-plate medium.

[2] = test system: Kleb. pneumoniae ATCC 10031; test: MIC of apolactoferrin on agar-plate medium; format: cell-based, Klebsiella pneumoniae
Description: as §1, §2

Kleb. pneumoniae 3K25 = test: MIC of apolactoferrin on agar-plate medium; format: cell-based, Klebsiella pneumoniae
Description: as §1, §2

bacteria = conditions: iron-free lactoferrin; previous studies; cited from earlier work
most pathogenic bacteria = test: Antibacterial activity of apolactoferrin in vitro, most bacteria; format: cell-based; conditions: most of the bacteria
Description: (§3) Therefore, even though the lactoferrins have very weak antibacterial activity in vitro, it is questionable that they exert direct antibacterial activity against bacteria infecting mammals.
as §1, §2

[3] = test system: Ser. marcescens IFO 12648; test: MIC of apolactoferrin on agar-plate medium; format: cell-based, Serratia marcescens
Description: as §1, §2

[4] = test system: Micrococcus lutens ATCC 9341; test: MIC of apolactoferrin on agar-plate medium; format: cell-based
Description: as §1, §2

Pr. rettgeri IFO 13501 = test: MIC of apolactoferrin on agar-plate medium; format: cell-based
Description: as §1, §2

[5] = test system: Klebsiella pneumoniae GN69; test: MIC of apolactoferrin on agar-plate medium; format: cell-based
Description: as §1, §2

Salmonella typhi = test: MIC of apolactoferrin on agar-plate medium; format: cell-based
Description: as §1, §2

Pr. morganii IFO 3848 = test: MIC of apolactoferrin on agar-plate medium; format: cell-based
Description: as §1, §2

Escherichia coli C11 = test: MIC of apolactoferrin on agar-plate medium; format: cell-based
Description: as §1, §2

Citrobacter freundii 2 = test: MIC of apolactoferrin on agar-plate medium; format: cell-based
Description: as §1, §2

[6] = test system: Escherichia coli NIHJ JC-2; test: MIC of apolactoferrin on agar-plate medium; format: cell-based
Description: as §1, §2

Salmonella paratyphi B = test: MIC of apolactoferrin on agar-plate medium; format: cell-based
Description: as §1, §2

[7] = test system: Citrobacter freundii GN 346; test: MIC of apolactoferrin on agar-plate medium; format: cell-based
Description: as §1, §2

Serratia marcescens No 2 = test: MIC of apolactoferrin on agar-plate medium; format: cell-based
Description: as §1, §2

Klebsiella oxytoca 1006 = test: MIC of apolactoferrin on agar-plate medium; format: cell-based
Description: as §1, §2

[8] = test system: Staphylococcus aureus Smith; test: MIC of apolactoferrin on agar-plate medium; format: cell-based
Description: as §1, §2

Pr. inconstans IFO 12930 = test: MIC of apolactoferrin on agar-plate medium; format: cell-based
Description: as §1, §2

Enterobacter feacalis 64 = test: MIC of apolactoferrin on agar-plate medium; format: cell-based
Description: as §1, §2

[9] = test system: Staphylococcus aureus 227; test: MIC of apolactoferrin on agar-plate medium; format: cell-based
Description: as §1, §2

Escherichia coli No 35 = test: MIC of apolactoferrin on agar-plate medium; format: cell-based
Description: as §1, §2

Shigella sonnei = test: MIC of apolactoferrin on agar-plate medium; format: cell-based
Description: as §1, §2

[10] = test system: Proteus vulgaris IFO 3851; test: MIC of apolactoferrin on agar-plate medium; format: cell-based
Description: as §1, §2

Pr. inconstans GN 627 = test: MIC of apolactoferrin on agar-plate medium; format: cell-based
Description: as §1, §2

[11] = test system: Pseudomonas aeruginosa E 7; test: MIC of apolactoferrin on agar-plate medium; format: cell-based
Description: as §1, §2

Proteus mirabilis 1287 = test: MIC of apolactoferrin on agar-plate medium; format: cell-based
Description: as §1, §2

Pr. morganii GN125 = test: MIC of apolactoferrin on agar-plate medium; format: cell-based
Description: as §1, §2

[12] = test system: Serratia marcescens No 78; test: MIC of apolactoferrin on agar-plate medium; format: cell-based
Description: as §1, §2

Proteus mirabilis GN79 = test: MIC of apolactoferrin on agar-plate medium; format: cell-based
Description: as §1, §2

Pr. rettgeri GN624 = test: MIC of apolactoferrin on agar-plate medium; format: cell-based
Description: as §1, §2

Salmonella paratyphi A = test: MIC of apolactoferrin on agar-plate medium; format: cell-based
Description: as §1, §2

Shigella flexineri = test: MIC of apolactoferrin on agar-plate medium; format: cell-based
Description: as §1, §2

[13] = test system: Enterobacter cloacae No 91; test: MIC of apolactoferrin on agar-plate medium; format: cell-based
Description: as §1, §2

Vibrio cholerae 569B = test: MIC of apolactoferrin on agar-plate medium; format: cell-based
Description: as §1, §2

[14] = test system: Enterobacter feacalis 95-1; test: MIC of apolactoferrin on agar-plate medium; format: cell-based
Description: as §1, §2

[15] = test system: Staphylococcus aureus 209p; test: MIC of apolactoferrin on agar-plate medium; format: cell-based
Description: as §1, §2

[16] = test system: Bacillus subtilis ATCC 6633; test: MIC of apolactoferrin on agar-plate medium; format: cell-based
Description: as §1, §2

Proteus vulgaris GN76 = test: MIC of apolactoferrin on agar-plate medium; format: cell-based
Description: as §1, §2

[17] = test system: St. epidermidis ATCC 13288; test: MIC of apolactoferrin on agar-plate medium; format: cell-based, Streptococcus epidermidis
Description: as §3, §1, §2

Pseu. aeruginosa No. 11 = test: MIC of apolactoferrin on agar-plate medium; format: cell-based, Pseudomonas aeruginosa
Description: as §1, §2

Pseu. aeruginosa TMS 11 = test: MIC of apolactoferrin on agar-plate medium; format: cell-based, Pseudomonas aeruginosa
Description: as §1, §2

Pseu. aeruginosa No. 47 = test: MIC of apolactoferrin on agar-plate medium; format: cell-based, Pseudomonas aeruginosa
Description: as §1, §2

[18] = test system: Pseu. aeruginosa IFO 3445; test: MIC of apolactoferrin on agar-plate medium; format: cell-based, Pseudomonas aeruginosa
Description: as §1, §2

B1: apolactoferrin: iron-free lactoferrin, from bovine milk (protein, UniProt P24627 20-708, looked up)
Lactotransferrin: APRKNVRWCTISQPEWFKCRRWQWRMKKLGAPSITCVRRAFALECIRAIAEKKADAVTLDGGMVFEAGRDPYKLRPVAAEIYGTKESPQTHYYAVAVVKKGSNFQLDQLQGRKSCHTGLGRSAGWIIPMGILRPYLSWTESLEPLQGAVAKFFSASCVPCIDRQAYPNLCQLCKGEGENQCACSSREPYFGYSGAFKCLQDGAGDVAFVKETTVFENLPEKADRDQYELLCLNNSRAPVDAFKECHLAQVPSHAVVARSVDGKEDLIWKLLSKAQEKFGKNKSRSFQLFGSPPGQRDLLFKDSALGFLRIPSKVDSALYLGSRYLTTLKNLRETAEEVKARYTRVVWCAVGPEEQKKCQQWSQQSGQNVTCATASTTDDCIVLVLKGEADALNLDGGYIYTAGKCGLVPVLAENRKSSKHSSLDCVLRPTEGYLAVAVVKKANEGLTWNSLKDKKSCHTAVDRTAGWNIPMGLIVNQTGSCAFDEFFSQSCAPGADPKSRLCALCAGDDQGLDKCVPNSKEKYYGYTGAFRCLAEDVGDVAFVKNDTVWENTNGESTADWAKNLNREDFRLLCLDGTRKPVTEAQSCHLAVAPNHAVVSRSDRAAHVKQVLLHQQALFGKNGKNCPDKFCLFKSETKNLLFNDNTECLAKLGGRPTYEEYLGTEYVTAIANLKKCSTSPLLEACAFLTR
modifications: iron-free
notes: iron-free lactoferrin, from bovine milk
For B1, the “Minimum Inhibitory Conc.” value [1] was > 6,400 μg/ml, the “Minimum Inhibitory Conc.” value [2] was > 6,400 μg/ml and the “Minimum Inhibitory Conc.” value (Kleb. pneumoniae 3K25) was > 6,400 μg/ml. For the same molecule, the “antibacterial activity by degree of iron saturation” value (bacteria) was “the most potent”, the minimum inhibitory concentrations (most pathogenic bacteria) was “more than 6,400 μg/ml” and the “Minimum Inhibitory Conc.” value [3] was > 6,400 μg/ml. For the same molecule, the “Minimum Inhibitory Conc.” value [4] was > 6,400 μg/ml, the “Minimum Inhibitory Conc.” value (Pr. rettgeri IFO 13501) was 3,200 μg/ml and the “Minimum Inhibitory Conc.” value [5] was > 6,400 μg/ml. For the same molecule, the “Minimum Inhibitory Conc.” value (Salmonella typhi) was > 6,400 μg/ml, the “Minimum Inhibitory Conc.” value (Pr. morganii IFO 3848) was > 6,400 μg/ml and the “Minimum Inhibitory Conc.” value (Escherichia coli C11) was > 6,400 μg/ml. For the same molecule, the “Minimum Inhibitory Conc.” value (Citrobacter freundii 2) was > 6,400 μg/ml, the “Minimum Inhibitory Conc.” value [6] was 3,200 μg/ml and the “Minimum Inhibitory Conc.” value (Salmonella paratyphi B) was > 6,400 μg/ml. The “Minimum Inhibitory Conc.” value [7] was > 6,400 μg/ml, the “Minimum Inhibitory Conc.” value (Serratia marcescens No 2) was > 6,400 μg/ml and the “Minimum Inhibitory Conc.” value (Klebsiella oxytoca 1006) was > 6,400 μg/ml. The “Minimum Inhibitory Conc.” value [8] was > 6,400 μg/ml, the “Minimum Inhibitory Conc.” value (Pr. inconstans IFO 12930) was > 6,400 μg/ml and the “Minimum Inhibitory Conc.” value (Enterobacter feacalis 64) was 3,200 μg/ml. For the same molecule, the “Minimum Inhibitory Conc.” value [9] was > 6,400 μg/ml, the “Minimum Inhibitory Conc.” value (Escherichia coli No 35) was 1,600 μg/ml and the “Minimum Inhibitory Conc.” value (Shigella sonnei) was > 6,400 μg/ml. For the same molecule, the “Minimum Inhibitory Conc.” value [10] was > 6,400 μg/ml, the “Minimum Inhibitory Conc.” value (Pr. inconstans GN 627) was > 6,400 μg/ml and the “Minimum Inhibitory Conc.” value [11] was > 6,400 μg/ml. For the same molecule, the “Minimum Inhibitory Conc.” value (Proteus mirabilis 1287) was 3,200 μg/ml, the “Minimum Inhibitory Conc.” value (Pr. morganii GN125) was 3,200 μg/ml and the “Minimum Inhibitory Conc.” value [12] was > 6,400 μg/ml. The “Minimum Inhibitory Conc.” value (Proteus mirabilis GN79) was > 6,400 μg/ml, the “Minimum Inhibitory Conc.” value (Pr. rettgeri GN624) was 6,400 μg/ml and the “Minimum Inhibitory Conc.” value (Salmonella paratyphi A) was > 6,400 μg/ml. For the same molecule, the “Minimum Inhibitory Conc.” value (Shigella flexineri) was > 6,400 μg/ml, the “Minimum Inhibitory Conc.” value [13] was > 6,400 μg/ml and the “Minimum Inhibitory Conc.” value (Vibrio cholerae 569B) was 3,200 μg/ml. For the same molecule, the “Minimum Inhibitory Conc.” value [14] was 3,200 μg/ml, the “Minimum Inhibitory Conc.” value [15] was > 6,400 μg/ml and the “Minimum Inhibitory Conc.” value [16] was 3,200 μg/ml. For the same molecule, the “Minimum Inhibitory Conc.” value (Proteus vulgaris GN76) was > 6,400 μg/ml, the “Minimum Inhibitory Conc.” value [17] was 800 µg/mL and the “Minimum Inhibitory Conc.” value (Pseu. aeruginosa No. 11) was > 6,400 μg/ml. The “Minimum Inhibitory Conc.” value (Pseu. aeruginosa TMS 11) was > 6,400 μg/ml, the “Minimum Inhibitory Conc.” value (Pseu. aeruginosa No. 47) was > 6,400 μg/ml and the “Minimum Inhibitory Conc.” value [18] was > 6,400 μg/ml.
